Measurements from the MegaScale stability set (Tsuboyama et al. 2023).

B1: 2M8U (parent)
chain: TKAQVIEAFKVFDRDGNGYVTVDYLRKVLNELGDMMPADEIEEMIYEADPQNSGYVQYETFVGMLFL

Variants of: B1
Experiment: folding stability dG (cDNA display proteolysis); higher = more stable
Details: PBS, room temperature

Folding stability dG [kcal/mol]: each site, then its substitutions
E47: P 2.33; S 3.71; W 3.76; F 3.75; M 3.87; C 3.66; T 3.73; R 4.15; Y 3.51; K 4.09; V 3.85; D 3.49; I 3.92; Q 3.96; N 3.52; L 3.88; A 3.76; G 3.5; H 3.8
I45: Q 1.91; M 2.88; C 2.67; K 2.41; S 2.16; F 2.61; T 2.13; G 2.2; N 2.17; D 2.39; E 2.15; W 2.6; P 1.88; R 2.06; Y 2.5; A 2.37; V 3; H 2.08; L 3.19
M44: R 3.66; K 3.56; T 2.97; N 2.88; C 3.6; G 2.53; S 2.96; W 3.21; I 3.05; D 2.25; F 3.09; E 2.18; Y 3.21; H 3.52; P 1.8; L 3.65; V 3.07; Q 2.95; A 3.48
D39: Y 3.86; V 4.01; W 3.65
E43: G 3.58; D 3.6; W 3.87; R 4.37; H 4.05; P 3.54; I 3.87; V 3.78; T 3.73; F 3.8; N 3.64; Q 3.9; L 3.73; A 3.81; S 3.74; K 3.75; Y 3.69; C 3.74; M 3.82
Q57: H 3.85; E 3.56; D 3.25; F 3.62; C 3.25; A 3.31; I 2.96; G 2.69
S53: R 3.35; P 2.4; H 3.11; D 3.02; A 3.19; N 3.26; W 3.22; Q 3.28; F 3.16; C 3.18; T 3.49; V 3.15; G 2.94; K 3.39; M 3.23; I 3.21; L 3.2; E 3.09; Y 3.2
G54: P 2.26; N 2.9; L 2.48; M 2.59; D 2.06; Q 2.29; R 2.56; F 2.89; T 2.35; Y 2.93; W 2.82; S 2.48; E 2.26; C 2.59; A 2.36; V 2.48; K 2.47; H 2.49; I 2.76
Q51: Y 3.62; E 3.48; F 3.58; V 3.34; C 3.71; T 3.56; M 3.49; N 3.46; L 3.53; P 2.52; D 3.56; I 3.31; S 3.49; H 3.54; W 3.49; A 3.47; K 3.45; G 3.43; R 3.3
N52: H 3.46; W 3.1; M 3.42; V 3.26; C 3.42; T 3.32; R 3.57; A 3.38; F 3.52; S 3.57; E 3.38; G 3.51; P 2.43; Y 3.31; K 3.4; I 3.03; Q 3.47; L 3.36; D 3.37
Y46: A 3.52; P 2.82; Q 3.66; F 3.55; L 3.44; G 3.44; C 3.46; R 3.66; S 3.52; K 3.64; E 3.36; H 3.62; V 3.5; I 3.47; T 3.62; W 3.56; D 3.29; N 3.57; M 3.58
A48: F 3.44; Q 3.37; S 3.53; M 3.28; K 2.63; P 2.25; V 3.28; D 2.1; G 2.64; R 2.9; L 3.45; N 3.44; C 3.84; Y 3.48; W 3.34; T 3.33; E 2.78; H 3.68; I 3.33
D49: V 2.58; T 2.83; G 2.36; F 2.43; W 2.66; L 2.43; Q 2.53; C 2.7; N 2.75; S 2.93; P 2.15; H 2.3; E 2.25; M 2.71; I 2.49; A 2.62; K 2.14; R 2.21; Y 2.67
E40: D 3.69; Q 3.64; K 3.91; A 3.65; M 3.66; N 4.09; S 3.7; W 3.75; V 3.74; G 4.01; C 3.85; I 3.91; H 4.01; L 3.89; Y 4.06; P 3.22; R 3.96; T 3.78; F 3.99
I41: P 1.98; M 3.57; L 3.83; R 3.03; K 2.59; N 2.17; G 2.29; Q 2.78; T 2.72; E 2.29; H 2.52; Y 3.35; S 2.59; V 3.4; D 1.96; F 3.5; A 2.86; W 3.72; C 2.87
V56: C 2.17; A 2.7; G 2.62; R 2.24; M 2.55; H 2.04; W 2.49; L 3.07; E 2.33; S 2.17; T 2.14; I 3.69; P 1.86; Y 2.29; K 1.78; N 1.99; Q 1.96; F 2.62; D 2.39
Y55: K 3.25; I 3.37; Q 3.48; S 3.25; L 3.35; W 3.55; A 2.82; R 3.37; V 3.44; E 3.05; T 3.11; F 3.35; G 2.16; H 3.22; C 3.44; P 1.77; D 2.22; M 3.51; N 3.16
P50: S 3.29; I 3.23; D 2.9; E 2.89; W 3.39; N 3.05; V 2.99; T 3.12; H 3.07; C 3.11; G 3; R 3.38; F 3.05; Q 3.25; Y 3.06; L 3.21; K 3.39; A 3.3; M 3.05
E42: F 3.06; Y 2.97; W 3.1; H 3.01; C 3.11; D 3.37; T 3.41; R 3.14; M 3.3; S 3.29; A 3.26; K 3.22; V 3.01; P 2.64; I 3.25; N 3.49; L 3.16; G 3.04; Q 3.37
